For 3 molecules, Kd and koff results are on record in patent US20230174599A1 (University of California, published 2023).

By Kd is commonly meant the constant that tells how readily two partners part at equilibrium. Read a low Kd as tighter binding. One may read the koff as the rate constant with which the complex falls apart.

In assay [1] the target is T1, SARS-CoV-2 Spike RBD (SARS-CoV-2, UniProt P0DTC2 319-541).
T1 construct: domain: RBD; also called single RBDs; Spike RBD proteins

For assay [2], the target named is T1, SARS-CoV-2 Spike RBD. This is another data set of the same source.
Assay [3] has as its target T1, SARS-CoV-2 Spike RBD.
Assay [4] addresses T1, SARS-CoV-2 Spike RBD. This is another data set of the same source.

“And” between values parts separate entries of the source, which are not always exact repeats. Equal values may be shown once. Read-outs that look alike come from different tables or passages of the source.

B1: RiAFP-HTH.1 (designed binder)
chain: ASRAEARGEAMAEGHSRGSATSHANATGHADARSMSEGNAEAYTEAKGDAMATSEASGEARAQTNADGSAHSSSRTHGRADSTASAKTNYNRECGEEQAKTFLDKFNHEAEDLFYQSSLASWNYNTNITEENVQNRNNAGDKRSAFLKEQSTLAQMYGCGSGSAMAEGTSDGDAKSYASADGNASAKSMSTGHADATTNAHGTAMADSNAIGEARAETRAEGRAESSSDTDGS
notes: also called mBSP-HTH.1; RiAFP-HTH.1 construct
For the molecule B1, the equilibrium dissociation constant (Kd) with SARS-CoV-2 Spike RBD [1] is 0.7 to 1.6 nM.

B2: RiAFP-HTH.2 (designed binder)
chain: ASRAEARGEAMAEGHSRGSATSHANATGHADARSMSEGNAEAYTEAKGDAMATSEASGEARAQTNADGSAHSSSRTHGRADSTASAKGGKALNDKEAKNKAILNLEEIEEQAKTFLDKFNHEAEDLFYQSSLASWNYNTNITEENVQNMNNAGDKWSAFLKEQSTLAQMYQNEIKRKSEKQEDLKKEMLELEKLGGAMAEGTSDGDAKSYASADGNASAKSMSTGHADATTNAHGTAMADSNAIGEARAETRAEGRAESSSDTDGS
notes: also called mBSP-HTH.2; RiAFP-.2
Consider B2, for which the Kd with SARS-CoV-2 Spike RBD [2] is 2.1 nM; in the assay with SARS-CoV-2 Spike RBD [1] it was 2.1 to 28 nM; in the assay with SARS-CoV-2 Spike RBD [3], ≥ 41 nM and ≤ 84 nM and 28 nM.

B3: polymeric RiAFP-HTH.2 fixed to nitrocellulose (designed binder)
chain: ASRAEARGEAMAEGHSRGSATSHANATGHADARSMSEGNAEAYTEAKGDAMATSEASGEARAQTNADGSAHSSSRTHGRADSTASAKGGKALNDKEAKNKAILNLEEIEEQAKTFLDKFNHEAEDLFYQSSLASWNYNTNITEENVQNMNNAGDKWSAFLKEQSTLAQMYQNEIKRKSEKQEDLKKEMLELEKLGGAMAEGTSDGDAKSYASADGNASAKSMSTGHADATTNAHGTAMADSNAIGEARAETRAEGRAESSSDTDGS
As for B3, in the assay with SARS-CoV-2 Spike RBD [4], the Kd was 0.006 to 0.009 nM and ≤ 0.01 nM; the koff lay in the range of 6e-07 to 9e-07 s⁻¹.
